Experimental data taken from patent US20200155571A1, “Topically Active Steroids for Use in Radiation and Chemotherapeutics Injury” (Soligenix, Inc., priority 2008, published 2020).

Experiments:
[1] = cited from earlier work
[2] = system: dogs given high dose total body irradiation (TBI); experiment: Survival of dogs after high dose TBI (GI radiation syndrome) with autologous marrow and supportive care; type: in vivo, dog; conditions: TBI dose giving >80% lethality; monitored up to 30 days; KGF 100 μg/kg/day iv or BDP 4 mg/day from 2 hours after TBI until GI recovery
Description: The dog is a particularly suitable animal model for studying radiations damage to epithelial tissue. […] To evaluate the response to TBI given at the high dose rate of 0.4 Gy/min or 0.7 Gy/min, treatment groups were given single-fraction 6, 7, 8 or 10 Gy TBI and received previously cryopreserved autologous marrow infusion upon completion of the TBI and standard supportive care. At doses of TBI below 8 Gy, all dogs survived. After 8 Gy TBI, 5 of 9 dogs died and after 10 Gy TBI, 9 of 9 dogs died from GI radiation syndrome. All deaths occurred between days 4 to day 6 after 10 Gy TBI. All deaths were attributable due to GI radiation toxicity with severe gut hemorrhage and intestinal crypt damage, as well as denudation of gut epithelium and focal necrosis in the intestines. Despite antibiotic treatment, blood cultures obtained near the time of death were positive for gram negative organisms in 4 dogs, consistent with entry of pathogens through the GI tract. […]
Dogs were monitored for survival up to 30 days after initiation of TBI (primary endpoint of the experiment). […] Dogs were also followed with daily CBCs until recovery and assessed for immune function recovery. […]

[3] = rats, cited from earlier work
glucocorticoid receptor = biological target: T1, glucocorticoid receptor (Homo sapiens, UniProt P04150); conditions: as fraction of the binding affinity of dexamethasone; cited from earlier work
T1 sequence (P04150 1-777): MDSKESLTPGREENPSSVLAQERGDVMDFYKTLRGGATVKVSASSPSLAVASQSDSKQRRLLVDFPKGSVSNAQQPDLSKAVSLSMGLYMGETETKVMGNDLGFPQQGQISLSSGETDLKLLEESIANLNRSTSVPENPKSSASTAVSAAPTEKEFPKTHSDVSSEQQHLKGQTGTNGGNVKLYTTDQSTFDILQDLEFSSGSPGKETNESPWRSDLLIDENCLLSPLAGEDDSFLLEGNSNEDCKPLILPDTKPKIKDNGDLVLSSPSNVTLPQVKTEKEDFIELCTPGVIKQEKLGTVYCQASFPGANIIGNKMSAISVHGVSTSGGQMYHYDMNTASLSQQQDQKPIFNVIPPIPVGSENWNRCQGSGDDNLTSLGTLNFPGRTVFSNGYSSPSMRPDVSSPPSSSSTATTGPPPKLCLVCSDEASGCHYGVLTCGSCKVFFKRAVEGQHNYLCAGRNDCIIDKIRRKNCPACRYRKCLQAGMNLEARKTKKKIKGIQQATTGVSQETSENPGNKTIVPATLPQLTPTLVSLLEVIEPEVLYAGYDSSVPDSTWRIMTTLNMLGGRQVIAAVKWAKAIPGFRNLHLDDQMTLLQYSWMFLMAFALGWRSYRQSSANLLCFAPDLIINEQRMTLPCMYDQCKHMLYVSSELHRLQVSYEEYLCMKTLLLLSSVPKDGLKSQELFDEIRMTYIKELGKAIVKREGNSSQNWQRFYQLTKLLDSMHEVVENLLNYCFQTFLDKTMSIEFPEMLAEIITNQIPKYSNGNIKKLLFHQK

[4] = 17-BMP after BDP administration, estimated; cited from earlier work
non-irradiated dogs = experiment: rhKGF in non-irradiated dogs, necropsy of gut; type: in vivo, dog; conditions: rhKGF 100 μg/kg/day for 14 and 21 days
Method: Three non-irradiated dogs were given rhKGF 100 μg/kg/day for 7, 14 and 21 days, respectively. Twenty-four hours after the last dose of KGF, dogs were euthanized and underwent complete necropsy.

[5] = system: oral mucositis after high-dose radiation; conditions: cited from earlier work
[6] = system: dogs given total body irradiation (TBI); experiment: Survival and hematopoietic recovery of dogs after TBI with cytokine treatment; type: in vivo, dog
Method: Supportive care consisted of the following: (a) intravenous antibiotics, ampicillin and amikacin and oral nonreabsorbable polymixin/neomycin administered without change in drug regimen until recovery of absolute neutrophil count (ANC)>1000/μL; (b) transfusions with irradiated whole blood (50 mL blood per transfusion) for platelet counts below 10,000/μL; and (c) subcutaneous fluids 20 ml/kg given daily for the first 5 days after TBI.
After TBI exposure, all dogs were treated with an oral fluoroquinolone, enrofloxacin. Core body temperature was measured at least twice daily. If fever developed or when ANC falls below <100/μL, dogs are empirically treated with the combination of intravenous third-generation cephalosporin (ceftazidime) and the aminoglycoside amikacin. Blood cultures are obtained when dogs develop fever and antibiotic treatment is adjusted based on blood culture results. If blood culture negative neutropenic fever persists for 48 hours, or if clinical condition objectively worsens, additional empiric antibiotic treatment with metronidazole and vancomycin is added. Although the new antibiotic regimen is more complicated compared with the historical treatment, it reflects improved broad spectrum coverage against gram negative, gram positive and anaerobic pathogens. Furthermore, blood transfusion support is more intensive now with larger volume of whole blood transfusion, based on body weight with 10-15 mL blood/kg/transfusion. The use of intravenous fluid support (10-30 mL/kg/day Lactated Ringers solution) is extended for at least 14 additional days until there is full recovery of oral food intake.
New supportive care measures have shown a significant improvement in survival after TBI. Following 4 Gy TBI (0.07 Gy/min, Varian Clinac 4/80 linear accelerator source), 4 of 4 dogs survived and recovered hematopoiesis with a median time to ANC and platelet recovery of 27 and 41 days, respectively. ANC recovery was defined as the first day of sustained neutrophil counts >500/μL and platelet recovery was defined as the first day of transfusion-independent sustained recovery of >40,000/μL. After 5 Gy TBI, 3 of 6 dogs survived with supportive care only. Deaths occurred at days 14, 15 and 21, respectively, after TBI and were due to neutropenic sepsis or pneumonia and not from the GI radiation syndrome. Among surviving dogs, the median time to ANC and platelet recovery was 29 and 44 days, respectively. After 6 Gy TBI, 5 of 6 dogs survived given supportive care only. One death occurred on day 22 due to neutropenic sepsis. The median time to ANC and platelet recovery was 34 and 74 days, respectively. After 7 Gy TBI and supportive care only, 5 of 6 dogs survived, with one death on day 22 due to neutropenic sepsis. […] As of Apr. 18, 2007, the remaining three dogs in this cohort remain transfusion-dependent at 66 to 95 days after TBI. […] Because of the improved survival of dogs after TBI given optimal supportive care in the current AI-066498 studies, we have not yet reached the 99% lethal dose of TBI threshold.
Although supportive care without cytokine support results in improved survival, cytokine treatment given after TBI aimed at recovery of the hematopoietic system also improves outcome and decreased the need for prolonged, intensive (and expensive) supportive care. Historical results in the dog model by our research group included studies which established that both recombinant canine (rc) and recombinant human (rh) G-CSF given after an otherwise lethal dose of 4 Gy TBI prevented death from radiation induced cytopenia. In the 1980's and early 1990's, after 4 Gy TBI and supportive care alone, only 1 of 28 dogs survived with recovery of hematopoiesis. In contrast, when G-CSF was given daily for 21 days after 4 Gy TBI, 8 of 10 dogs survived. […] These studies helped to establish the current clinical guidelines for the treatment of victims of radiation accidents. […]

In the case of beclomethasone 17,21-dipropionate [BDP], the “half-life in simulated intestinal fluid” value [1] is given as 2.1 min, the “survival after TBI” value [2] is given as “greater than 70%” and the “half-life of unchanged BDP in plasma” value ([3]; intravenous administration of 3H-BDP) is given as 3 to 4 min. For the same molecule, the “presence in plasma following oral administration of 3H-BDP” value [3] was “not detected”.

In the case of `CCC(=O)OCC(=O)[C@@]1(O)[C@@H](C)C[C@H]2[C@@H]3CCC4=CC(=O)C=C[C@]4(C)[C@@]3(Cl)[C@@H](O)C[C@@]21C` [21-BMP], the “glucocorticoid receptor binding affinity, in words” value (glucocorticoid receptor) is listed as “no apparent affinity”.

For `CCC(=O)O[C@]1(C(=O)CO)[C@@H](C)C[C@H]2[C@@H]3CCC4=CC(=O)C=C[C@]4(C)[C@@]3(Cl)[C@@H](O)C[C@@]21C` [17-BMP, 17-beclomethasone mono-propionate], the absolute oral bioavailability [4] is listed as 21-41%, the “half-life in simulated intestinal fluid” value [1] is listed as 720 min and the “presence in plasma following oral administration of 3H-BDP” value [3] is listed as “found in the plasma”.

B1: KGF: keratinocyte growth factor, recombinant human; binds the KGF receptor on epithelial tissues (protein, UniProt P21781 32-194, looked up)
Fibroblast growth factor 7: CNDMTPEQMATNVNCSSPERHTRSYDYMEGGDIRVRRLFCRTQWYLRIDKRGKVKGTQEMKNNYNIMEIRTVAVGIVAIKGVESEFYLAMNKEGKLYAKKECNEDCNFKELILENHYNTYASAKWTHNGGEMFVALNQKGIPVRGKKTKKEQKTAHFLPMAIT
With B1 the “effect on Peyer's patches in the ileum” value (non-irradiated dogs) was “dramatic increase in the size and cellularity of Peyer's patches”, the “effect on villi in the jejunum” value (non-irradiated dogs) was “dramatic increase in size of villi” and the “survival after TBI” value [2] was at least 70%. For the same molecule, the duration of mucositis ([5]; rhKGF 60 μg/kg/day for 3 days prior to 12 Gy fractionated TBI and 3 days after autologous PBSC infusion, placebo 10.4 days, p<0.001) was 3.4 days, the “incidence of febrile neutropenia” value ([5]; same trial, placebo 46%) was 26% and the “mean days of febrile neutropenia” value ([5]; same trial, placebo 4.6 days) was 2.6 days.

B2: G-CSF: cytokine granulocyte colony stimulating factor, recombinant canine or human (protein, UniProt P09919 31-207, looked up)
Granulocyte …: TPLGPASSLPQSFLLKCLEQVRKIQGDGAALQEKLVSECATYKLCHPEELVLLGHSLGIPWAPLSSCPSQALQLAGCLSQLHSGLFLYQGLLQALEGISPELGPTLDTLQLDVADFATTIWQQMEELGMAPALQPTQGAMPAFASAFQRRAGGVLVASHLQSFLEVSYRVLRHLAQP
With B2 the survival ([6]; 4 Gy TBI, G-CSF daily for 21 days, historical results, supportive care alone 1 of 28) was 8 of 10, the survival ([6]; 5 Gy TBI, 10 μg/kg/day starting 2 hours after irradiation, new supportive care) was 6 of 6 and the survival ([6]; 5 Gy TBI, G-CSF, historical results) was 3 of 10. For the same molecule, the “median time to ANC recovery” value ([6]; 5 Gy TBI, ANC >500/μL) was 20 days, the “median time to platelet recovery” value ([6]; 5 Gy TBI, platelets >40,000/μL) was 44 days and the “median time to ANC recovery” value ([6]; 6 Gy TBI) was 26 days. The “median time to platelet recovery” value ([6]; 6 Gy TBI) was 61 days and the survival ([6]; 6 Gy TBI, G-CSF 10 μg/kg/day, FL 100 μg/kg/day) was 5 of 6.
